Data published in patent publication US20240279278A1, “NMU RECEPTOR 2 AGONISTS” (Boehringer Ingelheim International GmbH, priority 2023, published 2024).
Values belong to the molecule of their own block, whether it stands above or below them. Starred links: 1 amine or outer side, 2 acyl side, 3 side chain; linkers in the order of their positions; H or OH if unused. Non-standard residues stand in square brackets, D forms with d. Residues, ends and D or L forms follow the SMILES beside them. *: point of attachment. Pipz(1-CH2CO,4-CH2CH2NH) = O=C(CN1CCN(CCN[*:1])CC1)[*:2]; γGlu = O=C(O)[C@H](CCC(=O)[*:2])N[*:1]; Stearoyl = CCCCCCCCCCCCCCCCCC(=O)*; X1 = CN(CC(=O)C(=O)[*:2])[*:1]; NMeL = CN[C@@H](CC(C)C)C(=O)O; Nle = CCCC[C@H](N)C(=O)O; Orn = NCCC[C@H](N)C(=O)O; Sar = CNCC(=O)O

Key:
in vivo = assay: in vivo; set-up: species or system NMRI mice; conditions: male, NMRI, mouse, iv
Procedure: Example 5: Pharmacokinetics Intravenous (iv) PK in Mouse Pharmacokinetic parameters of the test compounds were determined after intravenous administration to Naval Medical Research Institute (NMRI) mice. Male NMRI mice were obtained either from Charles River (Germany) or from Janvier (France) weighing approximately 30 g to 40 g. Mice were housed in standard cages with light cycle of 12-hour dark and 12-hour light. Standardized food and water were offered ad libitum to the animals during the whole experimental period. The respective peptide was dissolved in 50 mM phosphate buffer (pH 7.4) containing 3.5% mannitol. Intravenous doses of 30 nmol/kg were given via a tail vein. Serial blood samples were collected from the vena saphena into tubes containing EDTA as anticoagulant at different time points up to 48 hours post dosing. After centrifugation for approximately 5 minutes, plasma samples were transferred to 96-well Polymerase Chain Reaction (PCR) plates, immediately frozen and kept at approximately −20° C. until analyzed for plasma concentration by liquid chromatography mass spectrometry (LC-MS/MS). Individual plasma concentration-time profiles were analyzed by a non-compartmental approach, and the resulting pharmacokinetic parameters were determined.

human NMUR2 receptor = human NMUR2 receptor (Homo sapiens, UniProt Q9GZQ4); assay: IP1 Gq HTRF assay, activation of human NMUR2 in buffer; assay type: cell-based; set-up: expressed in transfected cells; host or cells: CHO-K1; conditions: selectivity for NMUR2 over NMUR1 from IP1 assay in buffer (Example 3)
Sequence of human NMUR2 receptor (Q9GZQ4 whole entry): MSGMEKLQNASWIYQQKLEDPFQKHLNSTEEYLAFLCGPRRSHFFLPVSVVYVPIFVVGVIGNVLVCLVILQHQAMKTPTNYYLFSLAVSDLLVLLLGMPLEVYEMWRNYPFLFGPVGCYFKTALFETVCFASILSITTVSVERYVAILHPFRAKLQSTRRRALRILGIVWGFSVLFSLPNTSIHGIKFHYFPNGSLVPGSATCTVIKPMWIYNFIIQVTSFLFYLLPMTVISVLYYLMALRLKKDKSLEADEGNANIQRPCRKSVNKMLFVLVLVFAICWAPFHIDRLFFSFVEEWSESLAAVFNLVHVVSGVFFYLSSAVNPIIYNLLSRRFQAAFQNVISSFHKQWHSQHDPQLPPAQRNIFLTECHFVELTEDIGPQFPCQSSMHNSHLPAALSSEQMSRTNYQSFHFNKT
In short: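 CHO-K1 cells stably expressing human NMUR1 or NMUR2, seeded 24 h before assay, stimulated with peptide agonists (8-point dose-response, 1% DMSO final) in HEPES/HBSS buffer with 50 mM LiCl and 0.1% BSA, pH 7.4, 1 h at 37 °C. IP1 accumulation read by HTRF competition (665/620 nm); EC50 from 4-parameter sigmoidal fit.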

[1] = target: T1, human neuromedin U receptor 1 (human, UniProt Q9HB89 24-426); assay: cell-based or functional assay
T1 sequence (looked up): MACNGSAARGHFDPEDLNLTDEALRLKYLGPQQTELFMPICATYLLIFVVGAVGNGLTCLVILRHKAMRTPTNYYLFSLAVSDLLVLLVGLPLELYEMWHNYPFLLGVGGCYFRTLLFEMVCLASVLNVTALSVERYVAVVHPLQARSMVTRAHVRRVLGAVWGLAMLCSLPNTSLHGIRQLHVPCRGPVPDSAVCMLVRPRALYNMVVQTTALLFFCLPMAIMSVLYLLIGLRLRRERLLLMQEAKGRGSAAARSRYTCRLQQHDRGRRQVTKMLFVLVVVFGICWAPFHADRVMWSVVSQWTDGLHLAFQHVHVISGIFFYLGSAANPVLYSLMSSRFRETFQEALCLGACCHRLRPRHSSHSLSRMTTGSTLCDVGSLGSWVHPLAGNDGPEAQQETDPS

[2] = target: human neuromedin U receptor 2 (human, UniProt Q9GZQ4 1-415); assay: cell-based or functional assay
Sequence of human neuromedin U receptor 2 (Q9GZQ4 whole entry): as the sequence (Q9GZQ4 whole entry) above

MRT (in vivo): 2.2 h | EC50 (hNMUR1)/EC50 (hNMUR2) (human NMUR2 receptor): 7.9
Molecule: CCCCCCCCCCCCCCCCCC(=O)N[C@@H](CCC(=O)N[C@@H](CCC(=O)N[C@@H](CCC(=O)N(C)CC(=O)C(=O)N[C@@H](CCC(=O)N(C)CC(=O)N(C)CC(=O)N(C)CC(=O)N(C)CC(=O)N(C)CC(=O)N(C)CC(=O)N(C)CC(=O)N(C)CC(=O)N(C)CC(=O)NCCN1CCN(CC(=O)N[C@@H](Cc2ccc(O)cc2)C(=O)N[C@@H](Cc2ccccc2)C(=O)N(C)[C@@H](CC(C)C)C(=O)N[C@@H](CCCC)C(=O)N[C@@H](CCCN)C(=O)N2CCC[C@H]2C(=O)N[C@@H](CCCNC(=N)N)C(=O)NCC(N)=O)CC1)C(=O)O)C(=O)O)C(=O)O)C(=O)O [Ref. 5, C18A-gGlu3-Sar12-AEPipAc-Tyr-Phe-NMeLeu-Nle-Orn-Pro-Arg-Gly-NH2, reference compound] ({Stearoyl-γGlu-γGlu-γGlu}-[X1][γGlu][Sar][Sar][Sar][Sar][Sar][Sar][Sar][Sar][Sar][Pipz(1-CH2CO,4-CH2CH2NH)]YF[NMeL][Nle][Orn]PRG-NH2)

Molecule: CCCCCCCCCCCCCCCCCC(=O)N[C@@H](CCC(=O)N[C@@H](CCC(=O)N[C@@H](CCC(=O)N(C)CC(=O)N(C)CC(=O)N(C)CC(=O)N(C)CC(=O)N(C)CC(=O)N(C)CC(=O)N(C)CC(=O)N(C)CC(=O)N(C)CC(=O)N(C)CC(=O)N(C)CC(=O)N(C)CC(=O)N(C)CC(=O)N(C)CC(=O)N(C)CC(=O)NCCN1CCN(CC(=O)N[C@@H](Cc2ccc(O)cc2)C(=O)N[C@@H](Cc2ccccc2)C(=O)N(C)[C@@H](CC(C)C)C(=O)N[C@@H](CCCC)C(=O)N[C@@H](CCCNC(=N)N)C(=O)N2CCC[C@H]2C(=O)N[C@@H](CCCNC(=N)N)C(=O)NCC(N)=O)CC1)C(=O)O)C(=O)O)C(=O)O [Ref. 1, C18A-gGlu3-Sar15-AEPipAc-Tyr-Phe-NMeLeu-Nle-Arg-Pro-Arg-Gly-NH2, reference compound] (HELM PEPTIDE1{[CCCCCCCCCCCCCCCCCC(=O)[*:2]].[gGlu].[gGlu].[gGlu].[Sar].[Sar].[Sar].[Sar].[Sar].[Sar].[Sar].[Sar].[Sar].[Sar].[Sar].[Sar].[Sar].[Sar].[Sar].[O=C(CN1CCN(CCN[*:1])CC1)[*:2]].Y.F.[meL].[Nle].R.P.R.G.[am]}$$$$V2.0)
MRT (in vivo): 0.8 h | EC50 (hNMUR1)/EC50 (hNMUR2) (human NMUR2 receptor): 4.3

Molecule: CCCC[C@H](NC(=O)[C@H](CC(C)C)N(C)C(=O)[C@H](Cc1ccccc1)NC(=O)[C@H](Cc1ccc(O)cc1)NC(=O)CN1CCN(CCNC(=O)CN(C)C(=O)CN(C)C(=O)CN(C)C(=O)CN(C)C(=O)CN(C)C(=O)CN(C)C(=O)CN(C)C(=O)CN(C)C(=O)CN(C)C(=O)CN(C)C(=O)CN(C)C(=O)CN(C)C(=O)CN(C)C(=O)CN(C)C(=O)CN(C)C(=O)CC[C@H](NC(=O)CC[C@H](NC(=O)CC[C@H](NC(=O)CCCCCCCCCCCCCCCCCCC(=O)O)C(=O)O)C(=O)O)C(=O)O)CC1)C(=O)N[C@@H](CCCNC(=N)N)C(=O)N1CCC[C@H]1C(=O)N[C@@H](CCCNC(=N)N)C(=O)NCC(N)=O [Ref. 4, C20DA-gGlu3-Sar15-AEPipAc-Tyr-Phe-Leu-Nle-Orn-Pro-Arg-Gly-NH2, reference compound] (HELM PEPTIDE1{[O=C(O)CCCCCCCCCCCCCCCCCCC(=O)[*:2]].[gGlu].[gGlu].[gGlu].[Sar].[Sar].[Sar].[Sar].[Sar].[Sar].[Sar].[Sar].[Sar].[Sar].[Sar].[Sar].[Sar].[Sar].[Sar].[O=C(CN1CCN(CCN[*:1])CC1)[*:2]].Y.F.[meL].[Nle].R.P.R.G.[am]}$$$$V2.0)
MRT (in vivo): 22.5 h | EC50 (hNMUR1)/EC50 (hNMUR2) (human NMUR2 receptor): 25.0

EC50 (activity as measured in Example 3) [1]: 0.2 nM | EC50 (activity as measured in Example 3) [2]: 0.046 nM
B1: C18A-gGlu3-Sar15-AEPipAc-Tyr-Phe-NMeLeu-Nle-Arg-Pro-Arg-Gly-NH2 (peptide)
peptide: EEEXXXXXXXXXXXXXXXXYFLXRPRG
HELM: PEPTIDE1{[CCCCCCCCCCCCCCCCCC(=O)[*:2]].[gGlu].[gGlu].[gGlu].[Sar].[Sar].[Sar].[Sar].[Sar].[Sar].[Sar].[Sar].[Sar].[Sar].[Sar].[Sar].[Sar].[Sar].[Sar].[O=C(CN1CCN(CCN[*:1])CC1)[*:2]].Y.F.[meL].[Nle].R.P.R.G.[am]}$$$$V2.0
SMILES: CCCCCCCCCCCCCCCCCC(=O)N[C@@H](CCC(=O)N[C@@H](CCC(=O)N[C@@H](CCC(=O)N(C)CC(=O)N(C)CC(=O)N(C)CC(=O)N(C)CC(=O)N(C)CC(=O)N(C)CC(=O)N(C)CC(=O)N(C)CC(=O)N(C)CC(=O)N(C)CC(=O)N(C)CC(=O)N(C)CC(=O)N(C)CC(=O)N(C)CC(=O)N(C)CC(=O)NCCN1CCN(CC(=O)N[C@@H](Cc2ccc(O)cc2)C(=O)N[C@@H](Cc2ccccc2)C(=O)N(C)[C@@H](CC(C)C)C(=O)N[C@@H](CCCC)C(=O)N[C@@H](CCCNC(=N)N)C(=O)N2CCC[C@H]2C(=O)N[C@@H](CCCNC(=N)N)C(=O)NCC(N)=O)CC1)C(=O)O)C(=O)O)C(=O)O

EC50 (activity as measured in Example 3) [1]: 75 nM | EC50 (activity as measured in Example 3) [2]: 3 nM
B2: C20DA-gGlu3-Sar15-AEPipAc-Tyr-Phe-Leu-Nle-Orn-Pro-Arg-Gly-NH2 (peptide)
peptide: EEEXXXXXXXXXXXXXXXXYFLXXPRG
HELM: PEPTIDE1{[O=C(O)CCCCCCCCCCCCCCCCCCC(=O)[*:2]].[gGlu].[gGlu].[gGlu].[Sar].[Sar].[Sar].[Sar].[Sar].[Sar].[Sar].[Sar].[Sar].[Sar].[Sar].[Sar].[Sar].[Sar].[Sar].[O=C(CN1CCN(CCN[*:1])CC1)[*:2]].Y.F.L.[Nle].[Orn].P.R.G.[am]}$$$$V2.0
SMILES: CCCC[C@H](NC(=O)[C@H](CC(C)C)NC(=O)[C@H](Cc1ccccc1)NC(=O)[C@H](Cc1ccc(O)cc1)NC(=O)CN1CCN(CCNC(=O)CN(C)C(=O)CN(C)C(=O)CN(C)C(=O)CN(C)C(=O)CN(C)C(=O)CN(C)C(=O)CN(C)C(=O)CN(C)C(=O)CN(C)C(=O)CN(C)C(=O)CN(C)C(=O)CN(C)C(=O)CN(C)C(=O)CN(C)C(=O)CN(C)C(=O)CC[C@H](NC(=O)CC[C@H](NC(=O)CC[C@H](NC(=O)CCCCCCCCCCCCCCCCCCC(=O)O)C(=O)O)C(=O)O)C(=O)O)CC1)C(=O)N[C@@H](CCCN)C(=O)N1CCC[C@H]1C(=O)N[C@@H](CCCNC(=N)N)C(=O)NCC(N)=O

EC50 (activity as measured in Example 3) [1]: 21 nM | EC50 (activity as measured in Example 3) [2]: 1.7 nM
B3: C18DA-gGlu3-Sar15-AEPipAc-Tyr-Phe-Leu-Nle-Arg-Pro-Arg-Gly-NH2 (peptide)
peptide: EEEXXXXXXXXXXXXXXXXYFLXRPRG
HELM: PEPTIDE1{[O=C(O)CCCCCCCCCCCCCCCCC(=O)[*:2]].[gGlu].[gGlu].[gGlu].[Sar].[Sar].[Sar].[Sar].[Sar].[Sar].[Sar].[Sar].[Sar].[Sar].[Sar].[Sar].[Sar].[Sar].[Sar].[O=C(CN1CCN(CCN[*:1])CC1)[*:2]].Y.F.L.[Nle].R.P.R.G.[am]}$$$$V2.0
SMILES: CCCC[C@H](NC(=O)[C@H](CC(C)C)NC(=O)[C@H](Cc1ccccc1)NC(=O)[C@H](Cc1ccc(O)cc1)NC(=O)CN1CCN(CCNC(=O)CN(C)C(=O)CN(C)C(=O)CN(C)C(=O)CN(C)C(=O)CN(C)C(=O)CN(C)C(=O)CN(C)C(=O)CN(C)C(=O)CN(C)C(=O)CN(C)C(=O)CN(C)C(=O)CN(C)C(=O)CN(C)C(=O)CN(C)C(=O)CN(C)C(=O)CC[C@H](NC(=O)CC[C@H](NC(=O)CC[C@H](NC(=O)CCCCCCCCCCCCCCCCC(=O)O)C(=O)O)C(=O)O)C(=O)O)CC1)C(=O)N[C@@H](CCCNC(=N)N)C(=O)N1CCC[C@H]1C(=O)N[C@@H](CCCNC(=N)N)C(=O)NCC(N)=O

EC50 (activity as measured in Example 3) [1]: 0.33 nM | EC50 (activity as measured in Example 3) [2]: 0.054 nM
B4: C20A-gGlu3-Sar15-AEPipAc-Tyr-Phe-NMeLeu-Nle-Orn-Pro-Arg-Gly-NH2 (peptide)
peptide: EEEXXXXXXXXXXXXXXXXYFLXXPRG
HELM: PEPTIDE1{[CCCCCCCCCCCCCCCCCCCC(=O)[*:2]].[gGlu].[gGlu].[gGlu].[Sar].[Sar].[Sar].[Sar].[Sar].[Sar].[Sar].[Sar].[Sar].[Sar].[Sar].[Sar].[Sar].[Sar].[Sar].[O=C(CN1CCN(CCN[*:1])CC1)[*:2]].Y.F.[meL].[Nle].[Orn].P.R.G.[am]}$$$$V2.0
SMILES: CCCCCCCCCCCCCCCCCCCC(=O)N[C@@H](CCC(=O)N[C@@H](CCC(=O)N[C@@H](CCC(=O)N(C)CC(=O)N(C)CC(=O)N(C)CC(=O)N(C)CC(=O)N(C)CC(=O)N(C)CC(=O)N(C)CC(=O)N(C)CC(=O)N(C)CC(=O)N(C)CC(=O)N(C)CC(=O)N(C)CC(=O)N(C)CC(=O)N(C)CC(=O)N(C)CC(=O)NCCN1CCN(CC(=O)N[C@@H](Cc2ccc(O)cc2)C(=O)N[C@@H](Cc2ccccc2)C(=O)N(C)[C@@H](CC(C)C)C(=O)N[C@@H](CCCC)C(=O)N[C@@H](CCCN)C(=O)N2CCC[C@H]2C(=O)N[C@@H](CCCNC(=N)N)C(=O)NCC(N)=O)CC1)C(=O)O)C(=O)O)C(=O)O
